In patent publication US20170174776A1:

How the values were obtained:
[1] = molecular target: fusion protein of the human transferrin receptor extracellular domain linked to human IgG1 Fc (human) (UniProt P02786); assay: ELISA, coated human TfR ECD-Fc, pH 5.5
[2] = molecular target: fusion protein of the human transferrin receptor extracellular domain linked to human IgG1 Fc (human) (UniProt P02786); assay: ELISA, coated human TfR ECD-Fc, pH 5.5 against pH 7.4
[3] = molecular target: fusion protein of the human transferrin receptor extracellular domain linked to human IgG1 Fc (human) (UniProt P02786); assay: ELISA, coated human TfR ECD-Fc, pH 7.4

Sequence of fusion protein of the human transferrin receptor extracellular domain linked to human IgG1 Fc (human) (P02786 89-760): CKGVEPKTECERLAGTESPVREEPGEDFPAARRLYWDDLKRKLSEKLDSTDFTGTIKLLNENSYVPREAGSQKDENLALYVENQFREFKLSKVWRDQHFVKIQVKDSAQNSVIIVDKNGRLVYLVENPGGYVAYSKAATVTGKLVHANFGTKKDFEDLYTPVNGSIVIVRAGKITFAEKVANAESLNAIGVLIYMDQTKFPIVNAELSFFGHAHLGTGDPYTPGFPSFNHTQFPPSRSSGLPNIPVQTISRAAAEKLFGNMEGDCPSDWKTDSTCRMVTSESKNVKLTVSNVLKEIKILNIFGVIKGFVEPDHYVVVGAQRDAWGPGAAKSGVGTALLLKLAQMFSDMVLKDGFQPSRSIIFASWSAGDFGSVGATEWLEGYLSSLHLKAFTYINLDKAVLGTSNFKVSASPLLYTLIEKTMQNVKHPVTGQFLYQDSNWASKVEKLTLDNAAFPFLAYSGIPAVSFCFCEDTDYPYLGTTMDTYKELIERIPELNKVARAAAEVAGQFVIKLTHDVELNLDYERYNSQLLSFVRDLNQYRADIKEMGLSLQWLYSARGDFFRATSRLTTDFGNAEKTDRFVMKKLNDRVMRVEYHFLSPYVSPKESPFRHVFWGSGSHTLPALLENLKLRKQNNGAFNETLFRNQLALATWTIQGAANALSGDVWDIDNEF

| EC50 [1] | ratio EC50 pH 5.5/EC50 pH 7.4 [2] | EC50 [3] | Substance |
| --- | --- | --- | --- |
| 0.691 µg/mL | 10.6 | 0.065 µg/mL | mAb OKT-9 (antibody) |
| 0.59 µg/mL | – | – | mAb MEM-75 (antibody) |
| > 1 µg/mL | > 15.6 | 0.0642 µg/mL | mAb MEM-189 (antibody) |
